This is an account of results in patent US20250108138A1, “TH[…] CONJUGATES” (MERCK PATENT GMBH, priority 2022, published 2025).

The nature of series [1]: n-octanol/PBS distribution coefficient (log D). To be noted: n-octanol/PBS pH 7.4, mean±SD. The class given is physicochemical. As to the method:
Example 5: PBS/n-Octanol Distribution Coefficient (Log D Values) The n-octanol/PBS distribution coefficients (log D values) were determined for each folate radioconjugate of the disclosure and a reference compound in order to assess their hydrophilic/hydrophobic properties. The log D values of the folate radioconjugates of the disclosure (50 MBq/nmol) were determined as previously reported, after dilution in PBS pH 7.4 to obtain an activity concentration of 10 MBq/500 μL. A sample of each radiofolate (ca. 0.5 MBq, 25 μL, 0.01 nmol) was added to a mixture of 1475 μL PBS pH 7.4 and 1500 μL n-octanol. The vials were vortexed vigorously for 1 min followed by centrifugation for 6 min at 2500 rpm for phase separation. An aliquot was taken from each phase and measured in a gamma-counter (Perkin Elmer, Wallac Wizard 1480). The distribution coefficients were calculated as the logarithm of the ratio of counts per minute (cpm) measured in the n-octanol phase relative to the cpm measured in the PBS phase. The results were listed as mean±SD of the data obtained from 3-4 independent experiments, each performed with five replicates.

Another series addresses T1, FR (Homo sapiens, UniProt P15328).
T1 construct: FR-positive IGROV-1 cells (human ovarian carcinoma cell line); endogenous in cells; host or cells: IGROV-1 human ovarian carcinoma cells
The series can be described thus: FR-binding affinity (KD) on FR-positive IGROV-1 cells. To be noted: 1 h at 4° C., specific binding (excess folic acid block). The procedure: The determination of the KD values was performed as previously reported (Deberle, L. M. et al; Bioconj Chem 2021, 32, p. 1617). FR-positive IGROV-1 cells (human ovarian carcinoma cell line, kindly provided by Dr. Gerrit Janssen, Free University Medical Center Amsterdam, The Netherlands) were seeded in 48-well plates (2.5×10^5 cells/well) in 500 μL FFRPMI medium with supplements. The cells were incubated at 37° C. and 5% CO2 to allow cell adhesion overnight. The experiment was performed on ice using ice-cold medium and buffer solutions. After removal of the supernatant, the cells were rinsed once with PBS prior to the addition of FFRPMI medium without supplements (450 μL/well). The respective folate radioconjugate of the disclosure (20 MBq/nmol) was added to each well at variable concentrations (in the range of 0.1 to 500 nM, 50 μL per well). […] The IGROV-1 tumor cells were incubated for 1 h at 4° C. on a shaker, followed by removal of the supernatants and rinsing the cells twice with PBS. After lysis of the cells with NaOH solution (1 M, aq., 500 μL), the samples were counted for activity in a γ-counter (Wallac Wizard 1480, Perkin Elmer). The counts per minute (cpm) of the specific binding (determined by subtracting the cpm of the unspecific binding from the cpm of total binding), were plotted against the molar concentration of the added folate radioconjugates of the disclosure. […]

Series [2] concerns the target T2, mouse serum albumin (MSA) (Mus musculus, UniProt P07724).
T2 construct: The amount of serum albumin in mouse (MSA) and human (HSA) blood plasma was defined as 550 μM and 800 μM; tissue Rockland Immunochemicals, Inc., USA; host or cells: mouse blood plasma
The series can be described thus: Relative albumin-binding affinity (B50), mouse blood plasma. Format: in vitro ADME. To be noted: inverse ratio of B50, normalized to [^177Lu]Lu-OxFol-1 (set as 1.0). The procedure:
(§1) Relative albumin-binding affinity of the folate radioconjugates of the disclosure: The albumin-binding affinity of the folate radioconjugates of the disclosure was assessed and compared to that of [^177Lu]Lu-OxFol-1. A fixed amount of radioconjugate (50 MBq/nmol), ^˜300 kBq, 15 μL, 0.006 nmol) was added to a defined volume (150 μL) of mouse and human blood plasma and various dilutions thereof in PBS pH 7.4, resulting in defined mouse serum albumin (MSA)-to-folate radioconjugate or human serum albumin (HSA)-to-folate radioconjugate molar concentration ratios ranging from 0.01 to 12′500 and 0.01 to 20′000, respectively. The albumin-bound fraction was determined using an ultrafiltration device as described above.
(§2) The data were analyzed using a semi-logarithmic plot assuming a maximum binding of 100%. The Hill equation was fitted to the data points and the half-maximum binding (B50) was determined based on the obtained binding curves (GraphPad Prism software, version 8). The relative albumin-binding affinities were defined as the inverse ratio of the B50 value of each radioconjugate of the disclosure to the reference compound [^177Lu]Lu-OxFol-1 (set as 1.0). […] The results were presented as average±SD of 2-3 independent experiments (Table 5).

Series [3] deals with T3, albumin in human blood plasma (Homo sapiens, UniProt P02768).
T3 construct: tissue Stiftung Blutspende SRK Aargau-Solothurn, Switzerland; host or cells: human blood plasma
T3 sequence (P02768 25-609): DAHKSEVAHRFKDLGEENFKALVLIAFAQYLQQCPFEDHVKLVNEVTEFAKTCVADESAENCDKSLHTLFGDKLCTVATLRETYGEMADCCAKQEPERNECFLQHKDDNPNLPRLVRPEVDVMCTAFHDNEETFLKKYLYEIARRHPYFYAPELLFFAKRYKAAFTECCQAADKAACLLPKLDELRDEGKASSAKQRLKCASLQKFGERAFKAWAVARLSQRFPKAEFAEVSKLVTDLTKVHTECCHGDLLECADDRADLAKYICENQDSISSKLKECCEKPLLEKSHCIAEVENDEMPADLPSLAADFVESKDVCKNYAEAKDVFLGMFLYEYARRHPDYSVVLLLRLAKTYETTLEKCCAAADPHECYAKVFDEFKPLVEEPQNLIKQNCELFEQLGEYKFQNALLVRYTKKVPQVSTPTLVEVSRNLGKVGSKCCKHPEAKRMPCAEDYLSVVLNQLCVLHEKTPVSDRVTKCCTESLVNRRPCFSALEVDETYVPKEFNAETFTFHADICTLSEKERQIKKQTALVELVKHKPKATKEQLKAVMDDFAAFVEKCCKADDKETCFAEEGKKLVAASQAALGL
The series can be described thus: Albumin-bound fraction, ultrafiltration filter assay, human blood plasma. As to conditions: 37° C., 30 min, percentage of total activity measured. The class given is in vitro ADME. The procedure: (§3) Albumin-binding properties were determined in mouse and human blood plasma. The albumin-binding properties of the folate radioconjugates of the disclosure in mouse blood plasma (Rockland Immunochemicals, Inc., USA) and human blood plasma (Stiftung Blutspende SRK Aargau-Solothurn, Switzerland) were determined using an ultrafiltration method (Deberle, L. M. et al., Molecules 2020, 25, (11)). The amount of serum albumin in mouse (MSA) and human (HSA) blood plasma was defined as 550 μM and 800 μM, respectively, based on measurements using a dry chemistry analyzer (DRI-CHEM 4000i, FUJIFILM, Japan). The folate radioconjugates of the disclosure (50 MBq/nmol, ca. 300 kBq, 0.006 nmol in 15 μL) were added to samples of mouse and human blood plasma (150 μL), followed by incubation of the samples at 37° C. for 30 min. The samples were loaded on Amicon centrifugal filters (cut-off of 10 kDa; Merck Millipore) followed by centrifugation (14,000 rcf, 30 min, 4° C.) to allow the separation of the plasma-bound from the plasma-unbound (free) fractions of each sample. […] The activity of the protein-bound fraction as well as the activity in the filtrate and in the filter unit were measured separately in a gamma-counter (Perkin Elmer, Wallac Wizard 1480). The percentage of radioconjugate bound to mouse and human albumin, respectively, was set in relation to the total activity measured (Table 4).

The target of series [4] is T4, human serum albumin (HSA) (Homo sapiens, UniProt P02768).
T4 construct: tissue Stiftung Blutspende SRK Aargau-Solothurn, Switzerland; host or cells: human blood plasma
T4 sequence (P02768 25-609): as above
The series can be described thus: Relative albumin-binding affinity (B50), human blood plasma. Format: in vitro ADME. As to conditions: inverse ratio of B50, normalized to [^177Lu]Lu-OxFol-1 (set as 1.0). As to the method:
as §1, §2

For series [5], the target named is T5, albumin in mouse blood plasma (Mus musculus, UniProt P07724).
T5 construct: tissue Rockland Immunochemicals, Inc., USA; host or cells: mouse blood plasma
T5 sequence (P07724 25-608): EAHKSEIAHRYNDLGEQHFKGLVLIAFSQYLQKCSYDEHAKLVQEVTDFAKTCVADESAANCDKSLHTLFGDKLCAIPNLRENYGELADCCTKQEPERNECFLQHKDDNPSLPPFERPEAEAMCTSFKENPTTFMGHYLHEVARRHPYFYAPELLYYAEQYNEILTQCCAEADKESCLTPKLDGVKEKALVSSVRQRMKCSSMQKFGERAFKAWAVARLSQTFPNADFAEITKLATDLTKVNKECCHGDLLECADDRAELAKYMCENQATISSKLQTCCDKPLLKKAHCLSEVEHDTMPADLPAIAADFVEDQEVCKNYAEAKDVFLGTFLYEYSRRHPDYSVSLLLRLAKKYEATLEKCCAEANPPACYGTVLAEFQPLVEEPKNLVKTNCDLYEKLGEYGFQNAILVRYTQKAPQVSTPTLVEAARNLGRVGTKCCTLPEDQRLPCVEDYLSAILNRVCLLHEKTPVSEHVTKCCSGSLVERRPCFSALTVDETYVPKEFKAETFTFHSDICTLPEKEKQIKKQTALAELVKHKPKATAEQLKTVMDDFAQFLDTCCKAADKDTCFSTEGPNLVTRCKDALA
The series can be described thus: Albumin-bound fraction, ultrafiltration filter assay, mouse blood plasma. Format: in vitro ADME. To be noted: 37° C., 30 min, percentage of total activity measured. As to the method: as §3

T1 sequence (P15328 25-234): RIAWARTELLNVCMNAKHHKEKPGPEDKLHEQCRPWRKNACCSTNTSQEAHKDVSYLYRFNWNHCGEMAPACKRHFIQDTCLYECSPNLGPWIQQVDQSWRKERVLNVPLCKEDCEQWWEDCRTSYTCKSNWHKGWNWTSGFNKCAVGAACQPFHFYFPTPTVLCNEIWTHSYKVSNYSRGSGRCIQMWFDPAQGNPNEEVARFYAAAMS
T2 sequence (P07724 25-608): as the sequence (P07724 25-608) above

The Kd is the concentration at which binding is half-saturated. Low values mean tighter binding, high ones weaker binding. Take `Nc1nc2ncc(CNc3ccc(C(=O)N[C@@H](CCC(=O)N[C@@H](CCCCNC(=O)CN4CCN(CC(=O)O)CCN(CC(=O)O)CCN(CC(=O)O)CC4)C(=O)N[C@@H](CCCCNC(=O)CCCc4ccc(I)cc4)C(=O)O)C(=O)O)cc3)nc2c(=O)[nH]1` [[^177Lu]Lu-OxFol-1, metal not drawn]: the “logD Value” in series [1] is recorded as −4.2 ± 0.2. Further, binding at FR was characterised by a dissociation constant (Kd) of 2.8 nM. Besides, the “Relative albumin-binding affinity, mouse plasma” value in series [2] is 1.00. In addition, in series [3], the “Albumin-bound fraction, human blood plasma” value is 96%. In addition, the “Relative albumin-binding affinity, human plasma” value in series [4] amounted to 1.00. In series [5], the “Albumin-bound fraction, mouse blood plasma” value worked out at 90%.
